“Also recorded” adds a separate entry of the source.
Tests used:
SKOV3 = experiment: Cytotoxicity on cell lines (HerDox dose curves); type: cell-based, human; conditions: concentration yielding 50% reduction in cell survival, mean ± SD
MDA-MB-435 (HER2+) = experiment: Targeted toxicity, cell survival by MTT assay; type: cell-based, human
Method: FIG. 7 illustrates targeted toxicity. […] Cell titer was determined by metabolic (i.e. MTT) assay. FIG. 7 upper panel illustrates the effect of HerDox on MDA-MB-231 (HER2−) and MDA-MB-435 (HER2+) cell survival. Relative surviving cell numbers are represented as a % of corresponding untreated cells. […] Relative survival (as % of untreated cells) is shown for Day 3 of treatment.
FIG. 8 illustrates receptor specificity. MDA-MB-435 (HER2+) cells were incubated with free ligand (eHRG) at 10× molar excess of HerDox for one hour at 4° C. Media was aspirated to remove free eHRG and fresh media containing HerDox (0.5 μM) was added to cells. Cell survival was measured by MTT assay and represented as a % of relative untreated cell numbers.
N=3. […] Bar, about 4 μm. […] (E) compares HerDox and Dox on off-target tissue. […] Green fluorescence in nuclei indicates apoptosis (positive TUNEL stain).
By three days, HerDox reduced HER2+ cell numbers by over 75% whereas HER2− cell survival was unaffected (FIG. 7). […] These findings emphasize the importance of targeting by showing that the untargeted drug affects nontarget (i.e. HER2−) cells. […] To test receptor targeting, the inventors used free heregulin ligand (Her or eHRG) as a competitive inhibitor. […] As a final in vitro challenge, the inventors tested whether HerDox induces toxicity specifically to HER2+ cells in a mixed culture of HER2+ and HER2− breast cancer cells. To do this, the inventors produced a HER2− cell line tagged with green fluorescent protein (GFP) for cell identification in the mixed culture (FIG. 9-A). […] Altogether, these findings indicate that HerDox has the capacity to preferentially target toxicity to HER2+ cells. […] In serum-containing media, no such loss from HerDox is detectable. […] Co-migration of HerPBK10 bands further verified that the conjugates remained intact in the cell media.

[1] = tested on: HER2+ tumors (MDA-MB-435); experiment: In vivo tumor toxicity (tumor growth); design: species or system mouse; conditions: 0.004 mg/kg with respect to Dox, daily tail vein injections for 7 days
BT474 parental cells = experiment: Tumor cell killing in culture; type: cell-based, human
Method: (§1) FIG. 21 depicts graph that show the results of the administration of HerDox on various cells. […] N=3. *=p<0.05 compared to parental. […] N=3.
(§2) N=3. *, p<0.05 compared to parental. […] N=3. […] Parental and resistant cell lines were treated with HerDox−/+HER3 blocking peptide (ErbB3 human; Prospec), and tested for cell survival 48 hours later. […] Treatments were compared to mock (saline)-treatment. […] N=3. *, p<0.05 compared to parental. […] N=3.
(§3) Parental cell lines were pre-treated with 0.5 mg/mL Tz for 24 hours before testing these cells for surface HER3 levels. […] Parental cell lines were pre-treated with 0.5 mg/mL Tz for 24 hours before testing these cells for HerPBK10 binding. […] SKBR3 Parental cells were treated with Tz at indicated concentrations (see upper X-axes) 4 and 24 hours before HerDox treatment and assayed for survival at 48-72 h after treatment. N=3. […] SK-474 Parental cells were treated with Tz at indicated concentrations (see upper X-axes) 4 and 24 hours before HerDox treatment and assayed for survival at 48-72 h after treatment. N=3. […] MDA-MB-435 non-resistant cells were treated with Tz at indicated concentrations (see upper X-axes) 4 and 24 hours before HerDox treatment and assayed for survival at 48-72 h after treatment. […] N=3. […] Tz-resistant cells were treated with Tz at indicated concentrations (see upper X-axes) 4 and 24 hours before HerDox treatment and assayed for survival at 48-72 h after treatment. N=3.
(§4) N=3. *, p<0.05 compared to parental. […] N=3. […] N=3. […] Tumor volumes were measured by calipers. […] Tumor volumes were measured by calipers. […]

[2] = tested on: BT474 trastuzumab-resistant cells; experiment: Tumor cell killing in culture
Method: as §1, §2, §3, §4

SKBR3 parental cells = experiment: Tumor cell killing in culture; type: cell-based, human
Method: as §1, §2, §3
Each therapeutic was administered at concentration ranges previously established for eliciting therapeutic efficacy.
Previous studies have shown that HER3 is transcriptionally and translationally elevated as soon as 4 hours after HER2 inhibition, either by lapatinib or gene silencing. […]

JIMT-1 cell line = experiment: Tumor cell killing in culture, pre-existing resistance; type: cell-based, human; conditions: JIMT-1, dose-dependent, maximum
Method: N=3. *, p<0.05 compared to parental. […] N=3. […] Treatments were compared to mock (saline)-treatment. […] N=3. *, p<0.05 compared to parental. […] N=3.
The efficacy of HerDox was also examined on a cell line with pre-existing resistance.
The contribution of HER3 to targeted toxicity was evaluated by assessing whether pre-adsorbing HerDox with a peptide comprising the ligand-binding domain of HER3 blocked cytotoxicity.

B1: HerDox: non-covalent complex of HerPBK10, double-stranded oligonucleotide and intercalated Dox (Unit A+Unit B+Unit C) (conjugate)
chain: SHLVKCAEKEKTFCVNGGECFMVKDLSNPSRYLCKCQPGFTGARCTENVPMKVQNQEKAEELYQKMRRAAMYEEGPPPSYESVVSAAPVAAALGSPFDAPLDPPFVPPRYLRPTGGRNSIRYSELAPLFDTTRVYLVDNKSTDVASLNYQNDHSNFLTTVIQNNDYSPGEASTQTINLDDRSHWGGDLKTILHTNMPNVNEFMFTNKFKARVMVSRLPTKDNQVELKYEWVEFTLPEGNYSETMTIDLMNNAIVEHYLKVGRQNGVLESDIGVKFDTRNFRLGFDPVTGLVMPGVYTNEAFHPDIILLPGCGVDFTHSRLSNLLGIRKRQPFQEGFRITYDDLEGGNIPALLDVDAYQASLKDDTEQGGGGAGGSNSSGSGAEENSNAAAAAMQPVEDMNDHAIRGDTFATRAEEKRAEAEAAAEAAAPAAQPEVEKPQKKPVIKPLTEDSKKRSYNLISNDSTFTQYRSWYLAYNYGDPQTGIRSWTLLCTPDVTCGSEQVYWSLPDMMQDPVTFRSTRQISNFPVVGAELLPVHSKSFYNDQAVYSQLIRQFTSLTHVFNRFPENQILARPPAPTITTVSENVPALTDHGTLPLRNSIGGVQRVTITDARRRTCPYVYKALGIVSPRVLSSRTFKKKKKKKKKK
modifications: left off: small tags and cut ends
Question: For B1, which EC50 (SKOV3) is on record?
Answer: The EC50 was 0.18 ± 0.03 µM.

Question: And the “reduction of HER2+ cell numbers” value (MDA-MB-435 (HER2+); 0.5 μM with respect to Dox, by three days)?
Answer: Its value is “over 75%”.

Question: And the “cell killing with free heregulin ligand as competitive inhibitor” value (MDA-MB-435 (HER2+); eHRG at 10× molar excess, HerDox 0.5 μM)?
Answer: The value was “completely inhibited cell killing”.

Question: And the “effect on tumor growth” value [1]?
Answer: Its value is “essentially prevented tumor growth”.

Question: And the “cell death on parental BT474 (comparative)” value (BT474 parental cells; 48-72 h after treatment)?
Answer: Its value is “higher cell death compared to Tz and Tz+Pz; also recorded: modestly improved over trastuzumab; also recorded: modestly improved over Tz”.

Question: And the “enhancement of HerDox toxicity by trastuzumab pre-treatment” value (BT474 parental cells; parental BT474, 4 h pre-treatment)?
Answer: The value was 50%.

Question: What about the “enhancement of HerDox toxicity by trastuzumab pre-treatment” value (BT474 parental cells; parental BT474, 24 h pre-treatment) of the same molecule?
Answer: The value was roughly 75%.

Question: And the “effect on BT474 resistant cells” value ([2]; 48-72 h after treatment)?
Answer: The value was “completely killed off; also recorded: complete cell death at all HerDox concentrations tested; also recorded: effectively eliminated”.

Question: And the “cytotoxicity at five-fold lower HerDox concentrations with trastuzumab pre-treatment” value ([2]; Tz-resistant BT474)?
Answer: Its value is “further enhanced cytotoxicity”.

Question: And the “effect on cell survival at five-fold lower HerDox concentrations” value ([2]; Tz-resistant BT474)?
Answer: Its value is “still had a potent effect on cell survival”.

Question: What about the “response of parental SKBR3 cells” value (SKBR3 parental cells; 48-72 h after treatment) of the same molecule?
Answer: Its value is “improved cell killing compared to trastuzumab; also recorded: improved cell killing compared to Tz”.

Question: And the cell death (SKBR3 parental cells; parental SKBR3, 48-72 h after treatment)?
Answer: The cell death was 50%.

Question: What about the “further augmentation of HerDox toxicity by trastuzumab pre-treatment” value (SKBR3 parental cells; parental SKBR3, Tz 4 or 24 hours before HerDox, highest doses tested) of the same molecule?
Answer: Its value is 40-50%.

Question: And the cells killed (JIMT-1 cell line)?
Answer: Its cells killed is “up to 90%”.
